Where two headings read alike, the source gives them in different places.
Experiments:
[1] = remark: other sources report otherwise

ILECVYCKQQL (modifications not checked) [HPV16 E6 34 …]
binding affinity ratio (IC50 of standard peptide / IC50 of test peptide) (HLA-A*0201 (human)): 0.0004

KFYSKISEYR (modifications not checked) [… (HPV16 E6, position 75, 10 amino acids)]
binding affinity ratio (IC50 of standard peptide / IC50 of test peptide) (ratio to standard peptide) (HLA-A*1101 (human)): 0.0002

FLRYQQIEFI (modifications not checked) [HPV18 E1 peptide … (position 452, 10 amino acids)]
binding affinity ratio (IC50 of the standard peptide / IC50 of the test peptide) (HLA-A*0201 (human)): 0.0025

CVYCKTVLEL (modifications not checked) [HPV18 E6 32 …]
binding affinity ratio (IC50 of the standard peptide / IC50 of the test peptide) (HLA-A*0201 (human)): 0.0001

KDCATMCRHY (modifications not checked)
relative binding ratio (IC50 of standard peptide / IC50 of test peptide) (HLA-A*1101 (human)): 0.0002 | binding affinity ratio (IC50 of standard peptide / IC50 of test peptide) (ratio to standard peptide) (HLA-A*0301 (human)): 0.0005

TTLEQQYNK (modifications not checked) [… (HPV16 E6, position 93, 9 amino acids)]
relative binding ratio (IC50 of standard peptide / IC50 of test peptide) (HLA-A*1101 (human)): 0.29

DIEITCVYCK (modifications not checked) [HPV18 E6 27 …]
binding affinity ratio (IC50 of standard peptide / IC50 of test peptide) (HLA-A*1101 (human)): 0.0021

QLCTELQTTI (modifications not checked) [HPV16 E6 peptide … (position 21, 10 amino acids)]
relative binding ratio (IC50 of standard peptide / IC50 of test peptide) (HLA-A*0201 (human)): 0.0012

ALLRYKCGK (modifications not checked) [HPV18 E1 284-292 peptide …]
relative binding ratio (IC50 of standard peptide / IC50 of test peptide) (HLA-A*1101 (human)): 0.14

FVNSTSHFWL (modifications not checked) [HPV18 E1 peptide … (position 508, 10 amino acids)]
binding affinity ratio (IC50 of the standard peptide / IC50 of the test peptide) (HLA-A*0201 (human)): 0.062

FAFRDLCIV (modifications not checked) [HPV16 E6 52 …]
binding affinity ratio (IC50 of standard peptide / IC50 of test peptide) (HLA-A*0201 (human)): 0.051

KDCATMCRH (modifications not checked)
relative binding ratio (IC50 of standard peptide / IC50 of test peptide) (HLA-A*1101 (human)): 0.0002 | binding affinity ratio (IC50 of standard peptide / IC50 of test peptide) (ratio to standard peptide) (HLA-A*0301 (human)): 0.0011

SVAALYWYR (modifications not checked) [HPV18 E1 peptide … (position 322, 9 amino acids)]
relative binding ratio (IC50 of standard peptide / IC50 of test peptide) (HLA-A*1101 (human)): 8.8

EITCVYCKT (modifications not checked) [HPV18 E6 29 …]
binding affinity ratio (IC50 of the standard peptide / IC50 of the test peptide) (HLA-A*0201 (human); [1]): 0.0001

LIRCINCQK (modifications not checked) [… (HPV16 E6, position 107, 9 amino acids)]
binding affinity ratio (IC50 of standard peptide / IC50 of test peptide) (ratio to standard peptide) (HLA-A*1101 (human)): 0.0009

VMGDTPEWI (modifications not checked) [HPV18 E1 339 peptide … (SEQ ID NO: 3614)]
relative binding ratio (IC50 of standard peptide / IC50 of test peptide) (HLA-A*0201 (human)): 0.007

CATMCKHYR (modifications not checked) [HPV18 E1 412-420 peptide …]
relative binding ratio (IC50 of standard peptide / IC50 of test peptide) (HLA-A*1101 (human)): 0.011

LLIRCINCQK (modifications not checked) [… (HPV16 E6, position 106, 10 amino acids)]
binding affinity ratio (IC50 of standard peptide / IC50 of test peptide) (ratio to standard peptide) (HLA-A*1101 (human)): 0.18

QLCTELQTT (modifications not checked) [HPV16 E6 peptide … (position 21, 9 amino acids)]
relative binding ratio (IC50 of standard peptide / IC50 of test peptide) (HLA-A*0201 (human); [1]): 0.0001

LVRNFKSDK (modifications not checked) [HPV18 E1 229 …]
binding affinity ratio (IC50 of standard peptide / IC50 of test peptide) (HLA-A*1101 (human)): 0.0002

EVFEFAFK (modifications not checked) [HPV18 E6 43 EVFEFAFK]
binding affinity ratio (IC50 of standard peptide / IC50 of test peptide) (HLA-A*1101 (human)): 0.018

DIRTLEDLL (modifications not checked) [HPV16 E7 peptide … (position 75, 9 amino acids)]
relative binding ratio (IC50 of standard peptide / IC50 of test peptide) (HLA-A*0201 (human)): 0.0003

GVSFSELVR (modifications not checked) [HPV16 E1 216 …]
relative binding ratio (IC50 of standard peptide / IC50 of test peptide) (HLA-A*1101 (human)): 0.018 | binding affinity ratio (IC50 of standard peptide / IC50 of test peptide) (ratio to standard peptide) (HLA-A*0301 (human)): 0.0011

MLIQPPKLR (modifications not checked) [HPV18 E1 312 …]
binding affinity ratio (IC50 of standard peptide / IC50 of test peptide) (HLA-A*1101 (human)): 0.0014

DSVYGDTLEK (modifications not checked) [HPV18 E6 83 …]
binding affinity ratio (IC50 of standard peptide / IC50 of test peptide) (HLA-A*1101 (human)): 0.0051

LVRPFKSNK (modifications not checked) [HPV16 E1 222 …]
binding affinity ratio (IC50 of standard peptide / IC50 of test peptide) (ratio to standard peptide) (HLA-A*1101 (human)): 1.8 | binding affinity ratio (IC50 of standard peptide / IC50 of test peptide) (HLA-A*0301 (human)): 0.07

CVYCKTVL (modifications not checked) [HPV18 E6 32 CVYCKTVL]
binding affinity ratio (IC50 of the standard peptide / IC50 of the test peptide) (HLA-A*0201 (human)): 0.0002

FITFLGALK (modifications not checked) [HPV18 E1 460-468 peptide …]
relative binding ratio (IC50 of standard peptide / IC50 of test peptide) (HLA-A*1101 (human)): 0.037

LIRCLRCQK (modifications not checked) [HPV18 E6 102 …]
binding affinity ratio (IC50 of standard peptide / IC50 of test peptide) (HLA-A*1101 (human)): 0.0012

NMSQWIRFR (modifications not checked) [HPV18 E1 428 …]
binding affinity ratio (IC50 of standard peptide / IC50 of test peptide) (HLA-A*1101 (human)): 0.0012

MMIEPPKLR (modifications not checked) [HPV16 E1 305 …]
binding affinity ratio (IC50 of standard peptide / IC50 of test peptide) (ratio to standard peptide) (HLA-A*1101 (human)): 0.0086 | binding affinity ratio (IC50 of standard peptide / IC50 of test peptide) (HLA-A*0301 (human)): 0.001

FILYAHIQCL (modifications not checked) [HPV18 E1 peptide … (position 265, 10 amino acids)]
binding affinity ratio (IC50 of the standard peptide / IC50 of the test peptide) (HLA-A*0201 (human)): 0.032

ALYWYRTGI (modifications not checked) [HPV18 E1 325 peptide …]
relative binding ratio (IC50 of standard peptide / IC50 of test peptide) (ratio to standard peptide) (HLA-A*0201 (human)): 0.0032

LLVRYKCGK (modifications not checked) [HPV16 E1 277 …]
binding affinity ratio (IC50 of standard peptide / IC50 of test peptide) (ratio to standard peptide) (HLA-A*1101 (human)): 0.0033 | binding affinity ratio (IC50 of standard peptide / IC50 of test peptide) (HLA-A*0301 (human)): 0.0043

TLEQQYNKPL (modifications not checked) [HPV16 E6 peptide … (position 94, 10 amino acids)]
relative binding ratio (IC50 of standard peptide / IC50 of test peptide) (HLA-A*0201 (human)): 0.0001

GTLGIVCPI (modifications not checked) [HPV16 E7 peptide … (position 85, 9 amino acids)]
relative binding ratio (IC50 of standard peptide / IC50 of test peptide) (HLA-A*0201 (human)): 0.021

LLIRCLRCQK (modifications not checked) [HPV18 E6 101 …]
binding affinity ratio (IC50 of standard peptide / IC50 of test peptide) (HLA-A*1101 (human)): 0.12

MSFLTALKR (modifications not checked) [HPV16 E1 454 …]
binding affinity ratio (IC50 of standard peptide / IC50 of test peptide) (ratio to standard peptide) (HLA-A*1101 (human)): 0.098 | binding affinity ratio (IC50 of standard peptide / IC50 of test peptide) (HLA-A*0301 (human)): 0.087

CIDFYSRIR (modifications not checked) [HPV18 E6 68 …]
binding affinity ratio (IC50 of standard peptide / IC50 of test peptide) (HLA-A*1101 (human)): 0.0001

NSNAAAFLK (modifications not checked) [HPV18 E1 393 …]
binding affinity ratio (IC50 of standard peptide / IC50 of test peptide) (HLA-A*1101 (human)): 0.37

ALDGNPISI (modifications not checked) [HPV18 E1 546 peptide …]
relative binding ratio (IC50 of standard peptide / IC50 of test peptide) (ratio to standard peptide) (HLA-A*0201 (human)): 0.021

QMNMSQWIR (modifications not checked) [HPV18 E1 426 …]
binding affinity ratio (IC50 of standard peptide / IC50 of test peptide) (HLA-A*1101 (human)): 0.0023

FLGALKSFL (modifications not checked) [HPV18 E1 peptide … (position 463, 9 amino acids)]
binding affinity ratio (IC50 of the standard peptide / IC50 of the test peptide) (HLA-A*0201 (human)): 0.045
